Experimental data: PMC9588774 (Cell Death & Disease, 2022)
Values belong to the binder of their own block, whether it stands above or below them.

Tests used:
CD95L (FasL, Peprotech) [1] = molecular target: CD95L (FasL, Peprotech) (UniProt P48023); assay: SPR; Biacore T200, 25 °C; CM5 chip coated with 140 RU of FasL (Peprotech); sCD95 or sCD95-Δ58 injected in triplicate at 25 µl/min in 10 mM Na2HPO4, 150 mM NaCl, 3 mM EDTA, 0.05% Tween-20, pH 7.4; Langmuir 1:1 fit, KD = kd/ka
CD95L (FasL, Peprotech) [2] = molecular target: T1, CD95L (FasL, Peprotech) (UniProt P48023 130-281); assay: SPR
T1 chain: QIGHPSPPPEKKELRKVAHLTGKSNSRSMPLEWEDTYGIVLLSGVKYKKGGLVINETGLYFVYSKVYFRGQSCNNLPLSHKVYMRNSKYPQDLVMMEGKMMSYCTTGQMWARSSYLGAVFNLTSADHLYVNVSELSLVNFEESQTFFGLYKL

[3] = molecular target: soluble full-length extracellular domain of CD95 (sCD95); assay: SEC; supernatants of sCD95-secreting HEK/293T cells on Superdex 200 Prep Grade (XK 16/70) in PBS, 1 mL/min, 1 mL fractions; CD95 in each fraction dosed by ELISA; native molecular markers
[4] = molecular target: the molecule itself; assay: as above

Kd (CD95L (FasL, Peprotech) [1]): 2.5 nM
koff (CD95L (FasL, Peprotech) [2]): 0.0011 s⁻¹
B1: soluble Δ58-truncated extracellular domain of CD95 (sCD95-Δ58) (domain or fragment)
chain: CHKPCPPGERKARDCTVNGDEPDCVPCQEGKEYTDKAHFSSKCRRCRLCDEGHGLEVEINCTRTQNTKCRCKPNFFCNSTVCEHCDPCTKCEHGIIKECTLTSNTKCKEEGSRSNL

Kd (CD95L (FasL, Peprotech) [1]): 2 nM
percent of homotrimer [3]: 27%
percent of monomer [3]: 20%
percent of the protein in the dimer fractions [3]: 44%
stoichiometry N [3]: 2
koff (CD95L (FasL, Peprotech) [2]): 0.0011 s⁻¹
B2: soluble full-length extracellular domain of CD95 (sCD95) (domain or fragment)
chain: RLSSKSVNAQVTDINSKGLELRKTVTTVETQNLEGLHHDGQFCHKPCPPGERKARDCTVNGDEPDCVPCQEGKEYTDKAHFSSKCRRCRLCDEGHGLEVEINCTRTQNTKCRCKPNFFCNSTVCEHCDPCTKCEHGIIKECTLTSNTKCKEEGSRSNL
modifications: N-glycosylated

Further lines, the binder ahead of its results:

B3: soluble Δ36-truncated extracellular domain of CD95 (sCD95-Δ36) (domain or fragment, UniProt P25445 37-173, looked up)
chain: LRKTVTTVETQNLEGLHHDGQFCHKPCPPGERKARDCTVNGDEPDCVPCQEGKEYTDKAHFSSKCRRCRLCDEGHGLEVEINCTRTQNTKCRCKPNFFCNSTVCEHCDPCTKCEHGIIKECTLTSNTKCKEEGSRSN
notes: CD95 (Fas), a.a; 37-173 of the 335-residue precursor; pcDNA3.1(+); also called Δ36-CD95; MMP7-cleaved form; source: HEK/293T, transfected (calcium/phosphate), secreted into serum-deprived Opti-MEM; supernatant ultracentrifuged
stoichiometry N [4]: 2

B4: soluble extracellular domain of CD95 with K33G (sCD95-K33G) (domain or fragment, UniProt P25445 17-173, looked up)
chain: RLSSKSVNAQVTDINSGGLELRKTVTTVETQNLEGLHHDGQFCHKPCPPGERKARDCTVNGDEPDCVPCQEGKEYTDKAHFSSKCRRCRLCDEGHGLEVEINCTRTQNTKCRCKPNFFCNSTVCEHCDPCTKCEHGIIKECTLTSNTKCKEEGSRSN
notes: CD95 (Fas), a.a; 17-173 of the 335-residue precursor, AAG codon (K) replaced by GGG (G); pcDNA3.1(+); also called soluble K33G CD95 mutant; source: HEK/293T, transfected (calcium/phosphate), secreted into serum-deprived Opti-MEM; supernatant ultracentrifuged
stoichiometry N [4]: 3
